# Source: patent publication US20210230272A1 (L AND L BIOPHARMA, published 2021)
# Columns and labels:
# human PD-1 [1] = biological target: T1, human PD-1 (human, UniProt Q15116 25-170); assay: blocking ELISA: PD-1 coated, biotin-labelled PD-L1
# T1 construct: extracellular domain; also called PD-1 antigen
# human PD-1 [2] = biological target: T1, human PD-1; assay: ELISA; EC50 ratio to the control monoclonal antibody
# human PD-1 [3] = biological target: T1, human PD-1; assay: ELISA, PD-1 coated
# human PD-1 [4] = biological target: T1, human PD-1; assay: blocking ELISA; IC50 ratio to the control monoclonal antibody
# T1 sequence (Q15116 25-170): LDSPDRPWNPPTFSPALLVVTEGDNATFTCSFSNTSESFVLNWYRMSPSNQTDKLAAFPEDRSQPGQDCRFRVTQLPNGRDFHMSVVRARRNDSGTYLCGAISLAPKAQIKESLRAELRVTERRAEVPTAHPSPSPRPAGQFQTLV
Binder,IC50 (human PD-1 [1]),EC50 fold change (human PD-1 [2]),EC50 (human PD-1 [3]),IC50 fold change (human PD-1 [4])
LB309 (bispecific antibody) chain 1: not shown chain 2: QVQLVQSGAEVKKPGSSVKVSCKASGYAFSNYLIEWVKQAPGQGLEWIGLINPGSGGTNYNEKFKGKATITADKSTSTAYMELSSLRSEDTAVYYCARVYYGNSFAYWGQGTLVTVSS chain 3: DIVMTQSPDSLAVSLGERATISCKSSQSLLNSGNQKNYLTWYQQKPGQPPKLLIYWASTRESGVPDRFSGSGSGTDFTLTISSLQAEDVAVYYCQNDYFYPFTFGQGTKLEIK chain 4: not shown,0.8 nM,1.33,0.16 nM,2.42
LB312 (bispecific antibody) chain 1: not shown chain 2: DIVMTQSPDSLAVSLGERATISCKSSQSLLNSGNQKNYLTWYQQKPGQPPKLLIYWASTRESGVPDRFSGSGSGTDFTLTISSLQAEDVAVYYCQNDYFYPFTFGQGTKLEIK chain 3: QVQLVQSGAEVKKPGSSVKVSCKASGYAFSNYLIEWVKQAPGQGLEWIGLINPGSGGTNYNEKFKGKATITADKSTSTAYMELSSLRSEDTAVYYCARVYYGNSFAYWGQGTLVTVSS chain 4: EIVLTQSPATLSLSPGERATLSCRASKGVSTSGYSYLHWYQQKPGQAPRLLIYLASYLESGVPARFSGSGSGTDFTLTISSLEPEDFAVYYCQHSRDLPLTFGGGTKVEIKRTVAAPSVFIFPPSDEQLKSGTASVVCLLNNFYPREAKVQWKVDNALQSGNSQESVTEQDSKDSTYSLSSTLTLSKADYEKHKVYACEVTHQGLSSPVTKSFNRGEC,,3,0.042 nM,
LB308 (bispecific antibody) chain 1: not shown chain 2: QVQLVQSGAEVKKPGSSVKVSCKASGYAFSNYLIEWVKQAPGQGLEWIGLINPGSGGTNYNEKFKGKATITADKSTSTAYMELSSLRSEDTAVYYCARVYYGNSFAYWGQGTLVTVSS chain 3: DIVMTQSPDSLAVSLGERATISCKSSQSLLNSGNQKNYLTWYQQKPGQPPKLLIYWASTRESGVPDRFSGSGSGTDFTLTISSLQAEDVAVYYCQNDYFYPFTFGQGTKLEIK chain 4: EIVLTQSPATLSLSPGERATLSCRASKGVSTSGYSYLHWYQQKPGQAPRLLIYLASYLESGVPARFSGSGSGTDFTLTISSLEPEDFAVYYCQHSRDLPLTFGGGTKVEIKRTVAAPSVFIFPPSDEQLKSGTASVVCLLNNFYPREAKVQWKVDNALQSGNSQESVTEQDSKDSTYSLSSTLTLSKADYEKHKVYACEVTHQGLSSPVTKSFNRGEC,1.93 nM,0.93,0.25 nM,1.8
LB313 (bispecific antibody) chain 1: not shown chain 2: EIVLTQSPATLSLSPGERATLSCRASKGVSTSGYSYLHWYQQKPGQAPRLLIYLASYLESGVPARFSGSGSGTDFTLTISSLEPEDFAVYYCQHSRDLPLTFGGGTKVEIKRTVAAPSVFIFPPSDEQLKSGTASVVCLLNNFYPREAKVQWKVDNALQSGNSQESVTEQDSKDSTYSLSSTLTLSKADYEKHKVYACEVTHQGLSSPVTKSFNRGEC chain 3: QVQLVQSGAEVKKPGSSVKVSCKASGYAFSNYLIEWVKQAPGQGLEWIGLINPGSGGTNYNEKFKGKATITADKSTSTAYMELSSLRSEDTAVYYCARVYYGNSFAYWGQGTLVTVSS chain 4: DIVMTQSPDSLAVSLGERATISCKSSQSLLNSGNQKNYLTWYQQKPGQPPKLLIYWASTRESGVPDRFSGSGSGTDFTLTISSLQAEDVAVYYCQNDYFYPFTFGQGTKLEIK,,3.4,0.048 nM,
LB314 (bispecific antibody) chain 1: DIVMTQSPDSLAVSLGERATISCKSSQSLLNSGNQKNYLTWYQQKPGQPPKLLIYWASTRESGVPDRFSGSGSGTDFTLTISSLQAEDVAVYYCQNDYFYPFTFGQGTKLEIK chain 2: QVQLVQSGAEVKKPGSSVKVSCKASGYAFSNYLIEWVKQAPGQGLEWIGLINPGSGGTNYNEKFKGKATITADKSTSTAYMELSSLRSEDTAVYYCARVYYGNSFAYWGQGTLVTVSS chain 3: not shown chain 4: QVQLVQSGAEVKKPGSSVKVSCKASGYAFSNYLIEWVKQAPGQGLEWIGLINPGSGGTNYNEKFKGKATITADKSTSTAYMELSSLRSEDTAVYYCARVYYGNSFAYWGQGTLVTVSS chain 5: DIVMTQSPDSLAVSLGERATISCKSSQSLLNSGNQKNYLTWYQQKPGQPPKLLIYWASTRESGVPDRFSGSGSGTDFTLTISSLQAEDVAVYYCQNDYFYPFTFGQGTKLEIK chain 6: not shown,,5.2,0.083 nM,
